Assay results from the supplement of paper PMC12042874.
± gives the uncertainty stated by the source.

Test: amyloid nucleation score (Sup35N fusion, yeast selection) (log enrichment); library NNK3; higher = more nucleation; inactive = no reads after selection
Outline: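 The nucleation score is a DiMSum log enrichment of output over input reads, centred on the mode score of non-aggregating sequences. Sequences under 100 input reads were excluded, and reads came from Illumina sequencing of plasmid inserts. Psi-negative yeast expressing Sup35N fused to peptides of 20 random codons were induced with 100 μM copper sulfate for 24 hours and grown 7 days at 30°C on medium lacking adenine and uracil. Random libraries had three technical output replicates.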
With CPCMLMMFSVGLTSSSPILC the amyloid nucleation score was 0.268 ± 0.44. In the case of VSFLMIYLSSNCSVSVRYHY, the amyloid nucleation score is reported as “inactive”. In the case of FVQRWCYGGKCNGCVGSSGG, the amyloid nucleation score is reported as “inactive”. In the case of TLYWFHTGICAYRMWTSVFF, the amyloid nucleation score is reported as “inactive”. For DSSNGFICR, the amyloid nucleation score was “inactive”. For PLLGSIFRFWWRGDTLMYRL, the amyloid nucleation score was “inactive”. In the case of YIPGGFRNFGMV, the amyloid nucleation score is reported as “inactive”. In the case of TTDGFRVRSTLYNYICVWRY, the amyloid nucleation score is reported as “inactive”. For NQTGSSRTSCCMDRWLMYIA, the amyloid nucleation score was “inactive”. In the case of IYPLAKFSLHLVYTDRVSIF, the amyloid nucleation score is reported as 0.352 ± 0.19. In the case of KMVGVKK, the amyloid nucleation score is reported as “inactive”. For QAQVDKCLLARFVGL, the amyloid nucleation score was “inactive”. For HKGFVSKIGNN, the amyloid nucleation score was -0.4 ± 0.9. For MLLVHNRTDIFLWIDLYNSL, the amyloid nucleation score was “inactive”. In the case of YPSGPHDCYCHTLYEFPFFL, the amyloid nucleation score is reported as “inactive”. With MHFRWQTFYSDN the amyloid nucleation score was “inactive”. With ERQNMSYMGHKKEYLNHYFW the amyloid nucleation score was “inactive”. For LWDWVYFAYDRVYLVLCSSC, the amyloid nucleation score was “inactive”. With WTRESLQYTGNSYGALSTFF the amyloid nucleation score was “inactive”. With FQNLAYMITAAPASGKKTSR the amyloid nucleation score was “inactive”. With SISAKVGSSGRLGRSPYRVD the amyloid nucleation score was “inactive”. In the case of VTRFTYPRILLGRNVDWLSF, the amyloid nucleation score is reported as “inactive”. For MRCILTLFSTDIICVLSCKC, the amyloid nucleation score was “inactive”. Work on EVGVTSLTIGHVT yielded an amyloid nucleation score of 1.29 ± 0.096. In the case of CKTVAYEYFTGLSLVLDFTR, the amyloid nucleation score is reported as “inactive”. With FMSFSRGCTWSLGWA the amyloid nucleation score was “inactive”. With HQTRIMPGLLGKRAFIRVRL the amyloid nucleation score was “inactive”. For GQTILC, the amyloid nucleation score was “inactive”. In the case of LSYFSLFYADGRHFRCLLDN, the amyloid nucleation score is reported as “inactive”. With NKHMGKQLAIAMAVRCAYSG the amyloid nucleation score was 0.326 ± 0.33. For TNKLIKFLDFHVRRVAVVGE, the amyloid nucleation score was “inactive”. With GSCCNQG the amyloid nucleation score was “inactive”. For AVVARGGVLVGTLCFLFWLS, the amyloid nucleation score was “inactive”. With SLSSIGSDFNGGC the amyloid nucleation score was “inactive”. For GSCSIGSINIAFASSSIVYG, the amyloid nucleation score was “inactive”. CLSMSLAKLGVIYL showed an amyloid nucleation score of 0.724 ± 0.21. With SLVEAGMFTQFS the amyloid nucleation score was “inactive”. With FGRVNCSSNYRNKMISSTRW the amyloid nucleation score was “inactive”. In the case of VYRGLQWECLDGIVAFRRER, the amyloid nucleation score is reported as “inactive”. In the case of TIIDGLKCFFPAFFME, the amyloid nucleation score is reported as “inactive”. For MFVYR, the amyloid nucleation score was “inactive”. With PTSSKLKFAFINYVLTVSTS the amyloid nucleation score was “inactive”. Work on CIVLTVKCSLA yielded an amyloid nucleation score of -0.669 ± 0.55. Substance TNMYSDSVIYVMHYGIPGGP has an amyloid nucleation score of 1.63 ± 0.092. With GLLCFK the amyloid nucleation score was “inactive”. For KYVSECK, the amyloid nucleation score was “inactive”. With RASFLSFCFSMAGFSLFDIK the amyloid nucleation score was “inactive”. Work on SFFIALVNIFRCLN yielded an amyloid nucleation score of 2.56 ± 0.059. For ASLMERSIMYFVLVNNPRSE, the amyloid nucleation score was 0.355 ± 0.29. For RLNIYLWGVGLTRDVIYPPS, the amyloid nucleation score was 1.66 ± 0.1. For YAPSVLSCN, the amyloid nucleation score was “inactive”. With SHHSL the amyloid nucleation score was “inactive”. With FIIHHGVYYHAMFMDMLLLM the amyloid nucleation score was “inactive”. In the case of WYGRLGWRLVRPLGRYFTRS, the amyloid nucleation score is reported as “inactive”. In the case of EFLPSCICDGKFISSLVCEP, the amyloid nucleation score is reported as “inactive”. With IASEFVRGKHSHYM the amyloid nucleation score was “inactive”. In the case of ITVCYMNKIWLK, the amyloid nucleation score is reported as “inactive”. In the case of DVRMLRLMVRELYC, the amyloid nucleation score is reported as “inactive”. For WQNEMYGRCVLCKLRYNEPD, the amyloid nucleation score was “inactive”. For YVCVPCPCELSIQCCVTITF, the amyloid nucleation score was 2.01 ± 0.061. For DYCGKRYPSASVKWPECFRG, the amyloid nucleation score was “inactive”. In the case of PVWLCSLPR, the amyloid nucleation score is reported as “inactive”. In the case of ATAVMVRILQRACTFLDAKS, the amyloid nucleation score is reported as “inactive”. In the case of MWKDLVVCL, the amyloid nucleation score is reported as 0.175 ± 0.88. In the case of GMLGTGYVYPCWL, the amyloid nucleation score is reported as “inactive”. For QMCTQLSIMI, the amyloid nucleation score was “inactive”. With GFRYLRTDNYMPCRGESVGW the amyloid nucleation score was “inactive”. With MRMHALAVNIGCCYTCVVVT the amyloid nucleation score was 0.866 ± 0.099. With LCVNCLPRSLIFDSSIWRVD the amyloid nucleation score was 0.296 ± 0.87. With EFIGGRAMLYEEWYMGVSSM the amyloid nucleation score was “inactive”. In the case of EDMVARGSLSKGHWKDLAT, the amyloid nucleation score is reported as “inactive”. In the case of MPGLAVFGCPRRCCGFRGLV, the amyloid nucleation score is reported as “inactive”. With FVNQFLQKFMNLDKYIKLSH the amyloid nucleation score was “inactive”. With SQLLYI the amyloid nucleation score was “inactive”. For SRSMDGSVCAFRMDMSSMD, the amyloid nucleation score was “inactive”. For SKSLMMDLCTYCHYLNVYRE, the amyloid nucleation score was “inactive”. For GFWINVMISKTLRYGSKAWC, the amyloid nucleation score was “inactive”. For ALRRVMVICLFKLDSEAHST, the amyloid nucleation score was “inactive”. Substance LRVRFTISWL has an amyloid nucleation score of -0.471 ± 0.41. For WIRVDRCGCARVPLGDHVKK, the amyloid nucleation score was “inactive”. In the case of RANDEEFHR, the amyloid nucleation score is reported as “inactive”. In the case of NLFSEFGMFNGKGPVGTSVG, the amyloid nucleation score is reported as “inactive”. For AGSDHVLRDRHYVVMPQEFL, the amyloid nucleation score was “inactive”. With FVSSVASFVSHKLVMKLSAM the amyloid nucleation score was “inactive”. With SKTGGFFNAVHASCPGVPLQ the amyloid nucleation score was “inactive”. In the case of CSCIGWLRNGDVSCNVDRAS, the amyloid nucleation score is reported as “inactive”. With RYVIV the amyloid nucleation score was “inactive”. For TEYFWGNYRKLCCFWWWLGR, the amyloid nucleation score was “inactive”. For GSGLLE, the amyloid nucleation score was “inactive”. For WLTYYIDFRVILSFQSVRDY, the amyloid nucleation score was “inactive”. In the case of DRIGVQ, the amyloid nucleation score is reported as “inactive”. In the case of TVFDWLMHQMNC, the amyloid nucleation score is reported as “inactive”. For RNTVSSTQEIWRLPISLEKT, the amyloid nucleation score was “inactive”. With IIYPAMTHFLSYMYRVNCVS the amyloid nucleation score was “inactive”. In the case of LIQVIGLSIALRTMSCLRGS, the amyloid nucleation score is reported as “inactive”. For YHYQDNMS, the amyloid nucleation score was “inactive”. For IFVVP, the amyloid nucleation score was “inactive”. With AANVESPKIYKWCINKRGMV the amyloid nucleation score was “inactive”. In the case of GCNLTYNVIGFGLYMKFRDE, the amyloid nucleation score is reported as 1.85 ± 0.069. With SRECLRKLDVSNSTRIK the amyloid nucleation score was -0.097 ± 0.24. For LVRLGMQRCRPLT, the amyloid nucleation score was “inactive”. For YERWKLVHHGKNMYEGVYRL, the amyloid nucleation score was “inactive”. Work on IIRCKMM yielded an amyloid nucleation score of -0.538 ± 0.57. For TSILPRSGANVKQLLLVLFV, the amyloid nucleation score was “inactive”. In the case of IRRRLEMLNTSLYSHI, the amyloid nucleation score is reported as “inactive”. For GSFVVMF, the amyloid nucleation score was “inactive”. In the case of MMLLGVRVED, the amyloid nucleation score is reported as “inactive”. With SLTLGCSDLGKGCREETYAG the amyloid nucleation score was “inactive”. In the case of MSCICGKPTAVCI, the amyloid nucleation score is reported as “inactive”. For YVRSHHNMNRTMVFKTCPWQ, the amyloid nucleation score was “inactive”. For RYGTLGDLV, the amyloid nucleation score was “inactive”. In the case of CCRLVRHFE, the amyloid nucleation score is reported as “inactive”. With NFWFCLISYCESFSMISERG the amyloid nucleation score was “inactive”. In the case of GQCVLCMVNVLYLWAKYTNR, the amyloid nucleation score is reported as “inactive”. With GCVCQLR the amyloid nucleation score was “inactive”. In the case of YVLMGAYASVL, the amyloid nucleation score is reported as “inactive”. With FCLCAFSALQRVYI the amyloid nucleation score was “inactive”. For WEPYTCIYC, the amyloid nucleation score was “inactive”. In the case of FRGKISKEPNCVVYFQQGRP, the amyloid nucleation score is reported as “inactive”. In the case of WVVQE, the amyloid nucleation score is reported as -0.553 ± 0.93. With SSLGWFQVSHFRYWNRRCGL the amyloid nucleation score was “inactive”. In the case of ELSSLSFHIHNMEFREKVKG, the amyloid nucleation score is reported as “inactive”. In the case of LIQDFTSSGRI, the amyloid nucleation score is reported as “inactive”. With WCCGY the amyloid nucleation score was 0.774 ± 0.27. With QTISVYYFHVLWSEGCRMYA the amyloid nucleation score was “inactive”. With GRRTARKIKAGPYLCWKDGT the amyloid nucleation score was “inactive”. For RVSSHISSCGYDFCLWVEA, the amyloid nucleation score was “inactive”. In the case of RVIGKCPHSRNCTPA, the amyloid nucleation score is reported as “inactive”. With FVMSFAN the amyloid nucleation score was “inactive”. In the case of LRWFAFSKSNIALGL, the amyloid nucleation score is reported as “inactive”. In the case of TDPGILYMSCIRVMLGLFWD, the amyloid nucleation score is reported as “inactive”. In the case of VDVLFC, the amyloid nucleation score is reported as “inactive”. For LKDLGYELIILAFKRLFLCC, the amyloid nucleation score was “inactive”. For AIGMMASRWNLWCITLFLLK, the amyloid nucleation score was “inactive”. In the case of MNRKVVANSGDRDGIVRTSS, the amyloid nucleation score is reported as 0.278 ± 0.43. For TTMRSIPRGRRT, the amyloid nucleation score was “inactive”. For QLRGGVHMMHVCACGVDWWM, the amyloid nucleation score was “inactive”. For TGLIWLCESNRMLTVGSSLR, the amyloid nucleation score was “inactive”. With LLFSAKGFECLMFVNRLYLA the amyloid nucleation score was “inactive”. In the case of SNITSCLNSQRKMDLAFYRV, the amyloid nucleation score is reported as “inactive”. In the case of CDFTKSNDTCMDTASMSLLV, the amyloid nucleation score is reported as “inactive”. In the case of TMLLLWYLHWSPAPRDCYLP, the amyloid nucleation score is reported as “inactive”. For RQRMSGQNVTNNHACLFKAR, the amyloid nucleation score was “inactive”. For MIIPFLLLTMLITKSWLLIW, the amyloid nucleation score was “inactive”. For ISNSLSIEGLAY, the amyloid nucleation score was “inactive”. In the case of LMPWTMSIWGL, the amyloid nucleation score is reported as “inactive”. In the case of NSRHLDIFRMFDNFSVCHQP, the amyloid nucleation score is reported as “inactive”. For YVKPIGYTIFLWTGLGSP, the amyloid nucleation score was “inactive”. In the case of DISKFNDSLSPSELSGLIFS, the amyloid nucleation score is reported as “inactive”. With SSCRDVWWKVVVVPTFTGGV the amyloid nucleation score was “inactive”. With NACVNEWRPKCQVSWGGPSF the amyloid nucleation score was -0.385 ± 0.93. Work on GLKWWLISASSVNFICVRYT yielded an amyloid nucleation score of 0.104 ± 0.23. For RELNQFSPRAENWWYSSHSV, the amyloid nucleation score was “inactive”. With SFSFVVPQARYFPTC the amyloid nucleation score was “inactive”. In the case of RTLTSDTHIRFLDQLSRYIW, the amyloid nucleation score is reported as “inactive”. In the case of AFYLMLVS, the amyloid nucleation score is reported as 1.12 ± 0.12. For SCIYTMAIRNNKVRCYFRAG, the amyloid nucleation score was “inactive”. With KPASAGLVINAVGSGHSEMW the amyloid nucleation score was “inactive”. With CKCVCNGAKDRFST the amyloid nucleation score was “inactive”.
